From patent US20240400715A1 (VIBRANT PHARMA, published 2024)
Residue numbers refer to the chain shown, from its start. Values joined by “and” are separate entries in the source; they are usually repeats but may differ in a detail not shown here. Equal entries are not always repeated.

B1: Knob+CEA-Fab-Hole (206) (bispecific antibody, human IgG4 S228P, kappa, F234A L235A)
chain: ESKYGPPCPPCPAPEAAGGPSVFLFPPKPKDTLMISRTPEVTCVVVDVSQEDPEVQFNWYVDGVEVHNAKTKPREEQFNSTYRVVSVLTVLHQDWLNGKEYKCKVSNKGLPSSIEKTISKAKGQPREPQVYTLPPCQEEMTKNQVSLWCLVKGFYPSDIAVEWESNGQPENNYKTTPPVLDSDGSFFLYSRLTVDKSRWQEGNVFSCSVMHEALHNHYTQKSLSLSL
heavy: EVQLVESGGGFVQAGESLTLSCTSSTLTFTPYRMAWYRQAPGKQRDLVADISSGDGRTTNYADFAKGRFTISRDNIKNTVFLRMTNLKPEDTAVYYCNTFVSFVGIARSWGQGTQVTVSSGGGGSGGGGSEVKLLESGGGLVQPKGSLKLSCAASGFTFNTYAMNWVRQAPGKGLEWVARIRSKYNNYATYYADSVKDRFTISRDDSQSILYLQMNNLKTEDTAMYYCVRHGNFGNSYVSWFAYWGQGTLVTVSSASTKGPSVFPLAPCSRSTSESTAALGCLVKDYFPEPVTVSWNSGALTSGVHTFPAVLQSSGLYSLSSVVTVPSSSLGTKTYTCNVDHKPSNTKVDKRVESKYGPPCPPCPAPEAAGGPSVFLFPPKPKDTLMISRTPEVTCVVVDVSQEDPEVQFNWYVDGVEVHNAKTKPREEQFNSTYRVVSVLTVLHQDWLNGKEYKCKVSNKGLPSSIEKTISKAKGQPREPQVCTLPPSQEEMTKNQVSLSCAVKGFYPSDIAVEWESNGQPENNYKTTPPVLDSDGSFFLVSRLTVDKSRWQEGNVFSCSVMHEALHNRFTQKSLSLSL
light: QAVVTQESALTTSPGETVTLTCRSSTGAVTTSNYANWVQEKPDHLFTGLIGGTNKRAPGVPARFSGSLIGDKAALTITGAQTEDEAIYFCALWYSNLWVFGGGTKVEIKRTVAAPSVFIFPPSDEQLKSGTASVVCLLNNFYPREAKVQWKVDNALQSGNSQESVTEQDSKDSTYSLSSTLTLSKADYEKHKVYACEVTHQGLSSPVTKSFNRGEC
notes: VHH linked to the VH of the Fab; human IgG4 knob-into-hole Fc
B2: 306 (TA7), configuration of FIG. 1W (bispecific antibody, IgG4)
heavy: EVQLVQSGAEVKKPGASVKVSCKASGFTFTSYYIHWVRQAPGQGLEWIGWIYPENDNTKYNEKFKDRVTITADTSTSTAYLELSSLRSEDTAVYYCARDGYSRYYFDYWGQGTLVTVSSASTKGPSVFPLAPCSRSTSESTAALGCLVKDYFPEPVTVSWNSGALTSGVHTFPAVLQSSGLYSLSSVVTVPSSSLGTKTYTCNVDHKPSNTKVDKRVESKYGPPCPPCPAPEAAGGPSVFLFPPKPKDTLMISRTPEVTCVVVDVSQEDPEVQFNWYVDGVEVHNAKTKPREEQFNSTYRVVSVLTVLHQDWLNGKEYKCKVSNKGLPSSIEKTISKAKGQPREPQVYTLPPCQEEMTKNQVSLWCLVKGFYPSDIAVEWESNGQPENNYKTTPPVLDSDGSFFLYSRLTVDKSRWQEGNVFSCSVMHEALHNHYTQKSLSLSL
chain: EVQLVESGGGFVQAGESLTLSCTSSTLTFTPYRMAWYRQAPGKQRDLVADISSGDGRTTNYADFAKGRFTISRDNIKNTVFLRMTNLKPEDTAVYYCNTFVSFVGIARSWGQGTQVTVSSESKYGPPCPPCPAPEAAGGPSVFLFPPKPKDTLMISRTPEVTCVVVDVSQEDPEVQFNWYVDGVEVHNAKTKPREEQFNSTYRVVSVLTVLHQDWLNGKEYKCKVSNKGLPSSIEKTISKAKGQPREPQVCTLPPSQEEMTKNQVSLSCAVKGFYPSDIAVEWESNGQPENNYKTTPPVLDSDGSFFLVSRLTVDKSRWQEGNVFSCSVMHEALHNRFTQKSLSLSL
light: DIVMTQSPDSLAVSLGERATINCKSSQSLLNSRTRKNYLAWYQQKPGQSPKLLIYWTSTRKSGVPDRFSGSGSGTDFTLTISSLQAEDVAVYYCKQSFILRTFGQGTKVEIK
notes: chains put together from VH/VL, CH1, knob-Fc; IgG4, kappa; also called CEA-CD3 bispecific antibody 306; not shown: kappa light chain constant domain (CL)
B3: CEA-Knob-Fab-+Hole (107) (bispecific antibody, human IgG4 S228P, kappa, F234A L235A)
heavy: EVQLVESGGGFVQAGESLTLSCTSSTLTFTPYRMAWYRQAPGKQRDLVADISSGDGRTTNYADFAKGRFTISRDNIKNTVFLRMTNLKPEDTAVYYCNTFVSFVGIARSWGQGTQVTVSSESKYGPPCPPCPAPEAAGGPSVFLFPPKPKDTLMISRTPEVTCVVVDVSQEDPEVQFNWYVDGVEVHNAKTKPREEQFNSTYRVVSVLTVLHQDWLNGKEYKCKVSNKGLPSSIEKTISKAKGQPREPQVYTLPPCQEEMTKNQVSLWCLVKGFYPSDIAVEWESNGQPENNYKTTPPVLDSDGSFFLYSRLTVDKSRWQEGNVFSCSVMHEALHNHYTQKSLSLSLGGGGSGGGGEVKLLESGGGLVQPKGSLKLSCAASGFTFNTYAMNWVRQAPGKGLEWVARIRSKYNNYATYYADSVKDRFTISRDDSQSILYLQMNNLKTEDTAMYYCVRHGNFGNSYVSWFAYWGQGTLVTVSSASTKGPSVFPLAPCSRSTSESTAALGCLVKDYFPEPVTVSWNSGALTSGVHTFPAVLQSSGLYSLSSVVTVPSSSLGTKTYTCNVDHKPSNTKVDKRV
chain: B1 chain with Y131C, C136S, W148S, L150A, Y189V, H217R, Y218F
light: B1 light
notes: Anti-CD3 TA1 Fab + anti-CEA VHH C17 on human IgG4 knob-into-hole Fc
B4: Fab (Heavy)-Knob+Fab (Light)-Hole-CEA (208) (bispecific antibody, human IgG4 S228P, kappa, F234A L235A)
heavy: EVKLLESGGGLVQPKGSLKLSCAASGFTFNTYAMNWVRQAPGKGLEWVARIRSKYNNYATYYADSVKDRFTISRDDSQSILYLQMNNLKTEDTAMYYCVRHGNFGNSYVSWFAYWGQGTLVTVSSASTKGPSVFPLAPCSRSTSESTAALGCLVKDYFPEPVTVSWNSGALTSGVHTFPAVLQSSGLYSLSSVVTVPSSSLGTKTYTCNVDHKPSNTKVDKRVESKYGPPCPPCPAPEAAGGPSVFLFPPKPKDTLMISRTPEVTCVVVDVSQEDPEVQFNWYVDGVEVHNAKTKPREEQFNSTYRVVSVLTVLHQDWLNGKEYKCKVSNKGLPSSIEKTISKAKGQPREPQVYTLPPCQEEMTKNQVSLWCLVKGFYPSDIAVEWESNGQPENNYKTTPPVLDSDGSFFLYSRLTVDKSRWQEGNVFSCSVMHEALHNHYTQKSLSLSL
chain: QAVVTQESALTTSPGETVTLTCRSSTGAVTTSNYANWVQEKPDHLFTGLIGGTNKRAPGVPARFSGSLIGDKAALTITGAQTEDEAIYFCALWYSNLWVFGGGTKVEIKRTVAAPSVFIFPPSDEQLKSGTASVVCLLNNFYPREAKVQWKVDNALQSGNSQESVTEQDSKDSTYSLSSTLTLSKADYEKHKVYACEVTHQGLSSPVTKSFNRGECESKYGPPCPPCPAPEAAGGPSVFLFPPKPKDTLMISRTPEVTCVVVDVSQEDPEVQFNWYVDGVEVHNAKTKPREEQFNSTYRVVSVLTVLHQDWLNGKEYKCKVSNKGLPSSIEKTISKAKGQPREPQVCTLPPSQEEMTKNQVSLSCAVKGFYPSDIAVEWESNGQPENNYKTTPPVLDSDGSFFLVSRLTVDKSRWQEGNVFSCSVMHEALHNRFTQKSLSLSLGGGGSGGGGSEVQLVESGGGFVQAGESLTLSCTSSTLTFTPYRMAWYRQAPGKQRDLVADISSGDGRTTNYADFAKGRFTISRDNIKNTVFLRMTNLKPEDTAVYYCNTFVSFVGIARSWGQGTQVTVSS
notes: Two-chain format; human IgG4 knob-into-hole Fc

molecular target: T1, human CD3 on Jurkat cells (human, UniProt P07766 23-207; P04234 22-171; P09693 23-182); test: FACS, Jurkat cells;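 further: flow cytometric binding of bispecific antibodies to Jurkat T cells, threefold serial dilutions incubated half an hour in the cold, EC50 taken from the fitted binding curve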
T1 construct: whole, on cells; CD3 complex as on Jurkat (Clone E6-1) cells; also called CD3 expressing cells (Jurkat)
Procedure: The binding of the bispecific antibodies was tested on the CA expressing human lung adenocarcinoma cell line (H1573) and the CD3 expressing immortalized T lymphocyte line (Jurkat). The steps are as follows: the cells were harvested, counted, and resuspended in FACS buffer (PBS containing 0.1% BSA) at 2×10⁶ cells/ml. 100 μl of cell suspension was incubated in a V-bottom 96-well plate at 4° C. with 3-fold serial dilutions of bispecific antibodies (20 μg/ml-0.009 μg/ml) for 30 minutes; washed twice with pre-cooled FACS buffer. […] GraphPadPrism was used to obtain the binding curve.

Binder	EC50
B1	8.29 nM and 1.08 µg/mL
B2	0.0129 µg/mL and 0.1 nM
B3	2.8 µg/mL and 21.6 nM
B4	0.917 µg/mL and 7.06 nM

molecular target: T2, human CD3ε/δ (ACRO systems, CDD-H52W1) (human, UniProt P07766 23-126; P04234 22-105); test: BLI, antibody captured, antigen in solution;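 further: bispecific antibodies captured on AHIC biosensors to a 1.5 nm loading signal, in PBST with 0.02% detergent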
T2 construct: Bought protein; also called human CD3ϵ/CD3δ; human CD3 epsilon/delta antigen
Procedure: The bispecific antibodies were diluted to 5 ag/ml, and 1.5 nm protein was coupled to the surface of the AHIC sensor chip through 0.02% PBST.

Binder	Kd [nM]	koff [s⁻¹]	kon [M⁻¹ s⁻¹]
B1	3.08	0.000552	180000
B2	1.4	0.000419	278000
B3	2.23	0.000803	360000
B4	2.82	0.000642	228000
